We go through six molecules from patent US20220356237A1 (UNIVERSITY OF MIAMI, published 2022).

Assay [1] deals with T1, human secretogranin III (Scg3) (human, UniProt Q8WXD2 20-468, limits assumed).
T1 construct: also called human Scg3; 1B1075
Nature of the assay: method not given; protein pulldown with protein G beads at 5 ug/ml each is described in paragraph 100. As to the method: Protein pulldown. Scg3 (5 μg/ml) was incubated with aflibercept, VEGFR-Fc or VEGFR2-Fc (5 μg/ml) in PBS solution containing 0.5% Triton X-100 and BSA (1 mg/ml) for 1 h at 4° C. Protein G beads (20 μl) were added and incubated at 4° C. for 30 min with end-over-end rotation. The beads were washed three times with PBS by centrifugation, eluted with low pH buffer (100 mM glycine, pH 2.7) and analyzed by Western blot using anti-Scg3 pAb.

Assay [2] has as its target T1, human secretogranin III (Scg3). Kind of assay: ELISA on immobilised Scg3 and Octet RED96. As to the method: (§1) Competitive binding to Scg3 was evaluated for Clone 49 and the other anti-Scg3 mAbs described in Table 1. Anti-Scg3 scFv Clone 49 (FIG. 3D) and Clone 78 (FIG. 3E) were expressed and purified. […] Bound scFv was detected by ELISA assay. Binding assays were also performed using an Octet RED96 system (Pall ForteBio), as described in Estep et al., MAbs 2013; 5:270-278.
A general note: ELISA stands for enzyme-linked immunosorbent assay.

For assay [3] the target is unchanged. Kind of assay: competition ELISA (excess mAb against Clone 78 scFv) and Octet RED96. As for the experimental part: as §1

Substitutions are numbered along the chain they refer to.

T1 sequence (Q8WXD2 20-468 limits assumed): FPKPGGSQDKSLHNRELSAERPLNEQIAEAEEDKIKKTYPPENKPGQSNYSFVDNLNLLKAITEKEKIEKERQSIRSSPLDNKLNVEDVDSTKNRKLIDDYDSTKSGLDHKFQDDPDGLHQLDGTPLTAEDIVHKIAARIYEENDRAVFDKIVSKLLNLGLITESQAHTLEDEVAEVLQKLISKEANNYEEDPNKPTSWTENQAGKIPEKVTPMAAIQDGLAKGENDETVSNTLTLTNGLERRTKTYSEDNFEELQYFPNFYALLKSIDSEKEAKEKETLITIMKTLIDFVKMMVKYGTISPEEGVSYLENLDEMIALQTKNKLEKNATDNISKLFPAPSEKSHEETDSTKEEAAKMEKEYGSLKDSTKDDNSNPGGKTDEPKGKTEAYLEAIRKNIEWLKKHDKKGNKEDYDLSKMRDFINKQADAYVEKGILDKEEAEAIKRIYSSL

B1: aflibercept (Fc fusion, UniProt P17948 129-230, looked up)
chain: SDTGRPFVEMYSEIPEIIHMTEGRELVIPCRVTSPNITVTLKKFPLDTLIPDGKRIIWDSRKGFIISNATYKEIGLLTCEATVNGHLYKTNYLTHRQTNTIIDVVLSPSHGIELSVGEKLVLNCTARTELNVGIDFNWEYPSSKHQHKKLVNRDLKTQSGSEMKKFLSTLTIDGVTRSDQGLYTCAASSGLMTKKNSTFVRVHEK
notes: also called EYLEA; not shown: human IgG Fc
As for B1, in assay [1], the binding result is on record as “no binding”.

B2: anti-Scg3 mAb Clone 49 (antibody, V domains shown)
VH: EVKLEESGAELVKPGASVKLSCTASGFNIKDTYMHWVKQRPEQGLEWIGRIDPANGDTKYDPKFQGKATITADTSSNTAYLQLSSLTSEDTAVYYCARNGPGTPWFAYWGQGTLVTVSA
VL: DIQMTQSSSYLSVSLGGRVTITCKASDHINNWLTWYQQKPGNAPRLLISGATSLETGVPSRFSGSGSGKDYTLSITSLQTEDVATYYCQQYWSTPFTFGSGTKLEIKR
notes: also called Clone 49 mAb; CLONE 49 Monoclonal Antibody
B2: in assay [2], the binding result is “binds”.

B3: anti-Scg3 mAb Clone 153 (antibody, V domains shown)
VH: GRKLQESGPELLKPGASVKISCKTSGYIFSTSWMNWVKQRPGQGLEWIGRIYPGDGHTNYNGKFKDKATLTADKSSSTAYMQLSSLTSVDSAVYFCARSADGYFFVYWGQGTLVTVSA
VL: DIVLTQTPLSLPVSLGDQASISCRSSQSIVHSNGNTYLEWYLQKPGQSPKLLIFKVSKRFSGVPDRFSGSGSGTDFTLKISRVEAEDLGVYHCFQGSHVPPTFGGGTKLEIKR
notes: Monoclonal antibody
In the case of B3, the binding result in assay [3] was “binds”.

B4: anti-Scg3 mAb Clone 78 (antibody, V domains shown)
VH: B3 VH with G1E, R2V, K3Q, E6Q, T31A, F64I, Y107D
VL: B3 VL with L4M, L9V, S61Y
notes: also called Clone 78 mAb; CLONE 78 Monoclonal Antibody
For B4, the binding result in assay [2] is listed as “binds”.

B5: anti-Scg3 mAb Clone 162 (antibody, V domains shown)
VH: B3 VH with G1P, R2G, L4A, Q5E, L11M, V89A
VL: B3 VL with S28N, V30I
notes: Monoclonal antibody
B5: the binding result in assay [3] is recorded as “binds”.

B6: anti-Scg3 mAb Clone 190 (antibody, V domains shown)
VH: B3 VH with G1E, R2V, Q5E, T31S, L113P
VL: B3 VL with L4M, T7S, E84G, V90I, H92Y
notes: Monoclonal antibody; also called CLONE 190 Monoclonal Antibody
As for B6, the binding result in assay [3] is reported as “binds”.
